Results reported in paper PMC10979099 (The Journal of Biological Chemistry, 2024).

Molecular target: Sra1 (human, UniProt Q7L576 1-1253)
Assay: reconstitution and co-purification

Sra1, sequence (Q7L576 whole entry): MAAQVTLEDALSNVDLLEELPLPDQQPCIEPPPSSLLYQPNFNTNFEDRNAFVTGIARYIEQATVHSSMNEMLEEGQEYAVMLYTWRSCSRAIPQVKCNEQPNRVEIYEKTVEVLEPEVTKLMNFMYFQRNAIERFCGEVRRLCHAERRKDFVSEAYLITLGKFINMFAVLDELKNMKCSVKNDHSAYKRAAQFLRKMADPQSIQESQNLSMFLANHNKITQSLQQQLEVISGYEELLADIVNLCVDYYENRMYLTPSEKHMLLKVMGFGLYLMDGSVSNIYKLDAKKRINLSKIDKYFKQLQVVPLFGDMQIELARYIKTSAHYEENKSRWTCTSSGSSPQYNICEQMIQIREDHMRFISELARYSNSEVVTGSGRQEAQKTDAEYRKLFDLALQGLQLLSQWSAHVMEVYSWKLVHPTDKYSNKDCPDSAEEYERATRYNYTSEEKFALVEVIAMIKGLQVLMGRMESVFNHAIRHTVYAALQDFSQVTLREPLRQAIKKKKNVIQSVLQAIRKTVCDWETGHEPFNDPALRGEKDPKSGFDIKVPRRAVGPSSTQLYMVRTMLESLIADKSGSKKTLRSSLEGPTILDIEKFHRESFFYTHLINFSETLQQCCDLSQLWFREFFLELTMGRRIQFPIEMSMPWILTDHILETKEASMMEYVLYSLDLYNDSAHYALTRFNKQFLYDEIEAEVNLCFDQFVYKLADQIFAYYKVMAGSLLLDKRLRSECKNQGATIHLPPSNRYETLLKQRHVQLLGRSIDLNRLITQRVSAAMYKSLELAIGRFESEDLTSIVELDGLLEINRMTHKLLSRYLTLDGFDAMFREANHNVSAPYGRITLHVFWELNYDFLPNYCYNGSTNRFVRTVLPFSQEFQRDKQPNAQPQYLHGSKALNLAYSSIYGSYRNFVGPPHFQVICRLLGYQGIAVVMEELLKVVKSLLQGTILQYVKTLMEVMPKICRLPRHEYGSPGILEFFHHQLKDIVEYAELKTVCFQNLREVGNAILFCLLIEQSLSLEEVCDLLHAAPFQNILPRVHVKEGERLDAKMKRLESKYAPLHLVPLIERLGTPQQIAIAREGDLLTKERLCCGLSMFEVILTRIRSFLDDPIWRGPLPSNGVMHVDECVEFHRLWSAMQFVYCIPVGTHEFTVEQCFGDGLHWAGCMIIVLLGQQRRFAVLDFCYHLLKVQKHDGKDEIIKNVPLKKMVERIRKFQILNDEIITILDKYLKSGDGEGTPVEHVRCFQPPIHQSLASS

B1: Nap1 (natural protein)
chain: MSRSVLQPSQQKLAEKLTILNDRGVGMLTRLYNIKKACGDPKAKPSYLIDKNLESAVKFIVRKFPAVETRNNNQQLAQLQKEKSEILKNLALYYFTFVDVMEFKDHVCELLNTIDVCQVFFDITVNFDLTKNYLDLIITYTTLMILLSRIEERKAIIGLYNYAHEMTHGASDREYPRLGQMIVDYENPLKKMMEEFVPHSKSLSDALISLQMVYPRRNLSADQWRNAQLLSLISAPSTMLNPAQSDTMPCEYLSLDAMEKWIIFGFILCHGILNTDATALNLWKLALQSSSCLSLFRDEVFHIHKAAEDLFVNIRGYNKRINDIRECKEAAVSHAGSMHRERRKFLRSALKELATVLSDQPGLLGPKALFVFMALSFARDEIIWLLRHADNMPKKSADDFIDKHIAELIFYMEELRAHVRKYGPVMQRYYVQYLSGFDAVVLNELVQNLSVCPEDESIIMSSFVNTMTSLSVKQVEDGEVFDFRGMRLDWFRLQAYTSVSKASLGLADHRELGKMMNTIIFHTKMVDSLVEMLVETSDLSIFCFYSRAFEKMFQQCLELPSQSRYSIAFPLLCTHFMSCTHELCPEERHHIGDRSLSLCNMFLDEMAKQARNLITDICTEQCTLSDQLLPKHCAKTISQAVNKKSKKQTGKKGEPEREKPGVESMRKNRLVVTNLDKLHTALSELCFSINYVPNMVVWEHTFTPREYLTSHLEIRFTKSIVGMTMYNQATQEIAKPSELLTSVRAYMTVLQSIENYVQIDITRVFNNVLLQQTQHLDSHGEPTITSLYTNWYLETLLRQVSNGHIAYFPAMKAFVNLPTENELTFNAEEYSDISEMRSLSELLGPYGMKFLSESLMWHISSQVAELKKLVVENVDVLTQMRTSFDKPDQMAALFKRLSSVDSVLKRMTIIGVILSFRSLAQEALRDVLSYHIPFLVSSIEDFKDHIPRETDMKVAMNVYELSSAAGLPCEIDPALVVALSSQKSENISPEEEYKIACLLMVFVAVSLPTLASNVMSQYSPAIEGHCNNIHCLAKAINQIAAALFTIHKGSIEDRLKEFLALASSSLLKIGQETDKTTTRNRESVYLLLDMIVQESPFLTMDLLESCFPYVLLRNAYHAVYKQSVTSSA
Does B1 bind?
Result: binds
